From patent US6194173A, “Binding proteins for phosphoinositides, GRP1 or general receptor 1 for phophoinositide” (priority 1999, dated 2001)
Entries after “also recorded” stand apart in the source; their conditions may differ.

Legend:
GRP = molecular target: T1, GRP (Mus musculus, UniProt O08967); assay: Effect of phosphoinositides on GRP-catalyzed ARF1 guanine nucleotide exchange; assay type: biochemical; details: 25 μM lipid, 0.15 μM GRP
T1 construct: GST (N, cleaved yes); made in house; host or cells: GRP from pGEX-4T; ARF1 from baculovirus-infected Sf-9 cells
T1 sequence (O08967 1-399): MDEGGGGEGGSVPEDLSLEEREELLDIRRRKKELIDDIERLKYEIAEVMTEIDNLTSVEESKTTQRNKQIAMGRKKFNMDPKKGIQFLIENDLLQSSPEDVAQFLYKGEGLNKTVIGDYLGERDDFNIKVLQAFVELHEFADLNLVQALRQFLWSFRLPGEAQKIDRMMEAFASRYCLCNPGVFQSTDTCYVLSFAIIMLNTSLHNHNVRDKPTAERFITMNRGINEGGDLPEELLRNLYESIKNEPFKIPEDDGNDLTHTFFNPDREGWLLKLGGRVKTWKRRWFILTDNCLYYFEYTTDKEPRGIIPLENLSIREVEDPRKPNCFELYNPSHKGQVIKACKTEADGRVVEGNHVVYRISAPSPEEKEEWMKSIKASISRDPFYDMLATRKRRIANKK

PH domain of PLCγ1 = details: cited from earlier work
ARNO = details: vesicles with high concentrations of negatively charged phospholipids; cited from earlier work
PH domain of GRP = molecular target: T2, PH domain of GRP (Mus musculus, UniProt O08967); assay: Competition for [3H]dioctanoyl PtdIns(3,4,5)P3 binding to the PH domain of GRP; design: GST fused to the PH region of GRP (amino acids 239-399); made in house; host or cells: bacteria; details: FIG. 9B
T2 sequence (O08967 239-399): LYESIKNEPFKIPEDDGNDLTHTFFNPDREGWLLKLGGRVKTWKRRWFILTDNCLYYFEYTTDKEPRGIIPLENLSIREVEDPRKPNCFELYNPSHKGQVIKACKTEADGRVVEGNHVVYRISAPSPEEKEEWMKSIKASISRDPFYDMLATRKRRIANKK
Method: Binding assays were performed as described in (Rameh, L. E. et al., J. Biol. Chem., In Press). Briefly, GST fused to the PH region of GRP (amino acids 239-399) was bound to glutathione immobilized on agarose beads (Sigma). Synthetic [^3 H]-labeled diotanoyl PtdIns(3,4,5)P3 was added, and after one hour the beads were separated from the supernatant by centrifugation. The amount of [^3 H]-PtdIns(3,4,5)P3 bound to the PH domain was calculated by subtracting the amount of free [^3 H] present in supernatants from GST-GRP from the amount of free [^3 H] in supernatants from control GST. The data was fitted to the equation [bound]=Bmax×[free]/(KD + [free]) by least squares curve fit. For the competition assays the beads containing the GST-fusion proteins were incubated with 2.5 μM[^3 H]-labeled dioctanoyl PtdIns(3,4,5)P3 bound was calculated based on the amount of [^3 H] bound to the beads in the absence of competitor. The total [^3 H] bound to the GST control was less then 0.5% of the total [^3 H] bound to GRP PH domain. The data was fitted to the equation % bound=100-n×L/Klapp +L) where n is the % specific binding, L is the concentration of unlabeled lipid added and Klapp is the apparent competitive dissociation constant. The rations of the apparent dissociation constants accurately reflect the ratios of the true dissociation constants under the present experimental conditions (Rameh, L. E. et al., J. Biol. Chem., In Press).
The data depicted in FIG. 8 indicate that receptor signaling through PI3-kinases, which generates PtdIns(3,4,5)P3, may specifically regulate ARF proteins through GRP. In order to further test this, the relative binding affinities of PtdIns(3,4,5)P3 versus PtdIns (4,5)P2, which is constitutively present in cell membranes, for the PH domain of GRP were determined. A GST fusion protein of the PH domain of GRP was incubated with various concentrations of synthetic [^3 H]dioctanoyl PtdIns(3,4,5)P3 and binding was determined (FIG. 9A). These experiments show high affinity binding of this polyphosphoinositide,with a calculated Kd=0.5 μM.

ARF1 = ARF1 guanine nucleotide exchange ([35S]GTPγS binding); assay type: biochemical
ARF6 = ARF6 guanine nucleotide exchange ([35S]GTPγS binding); assay type: biochemical
[1] = Binding of [32P]PI(3,4,5)P3 by GST fusion proteins spotted on nitrocellulose; details: 150 pmol protein on nitrocellulose; relative to GST
Method: The 3'-phosphatidylinositol probes labeled at the 3' position were generated using GST-p110 PI3-kinase purified from recombinant bacculovirus infected Sf 9 cells, using either purified phosphatidylinositol phosphates or crude brain lipid. Briefly, 20 mg phospholipid in chloroform was dried under N2 and resuspended in […] of buffer containing Tris-HCl pH 7.4, EDTA 1 mM and incubated in […] phopsphorylation media containing 20 mM Tris-HCl pH 7.4, 100 mM NaCl, 10 mM MgCl2, 0.5 mM EGTA. 0.2 mM adenosine, GST-p110 and 5-10 mCi [g-^32 P]ATP (5 Ci/umol). The reaction was carried out for 2 h at room temperature, quenched by addition of 0.2 ml of 1M HCl, followed by 0.5 ml of chloroform:methanol (1:1). The organic phase containing phospholipids was washed 4 times with 0.4 ml of methanol:HCl (1: 1) and stored at -70° C. until use. Just before use, the lipid was dried under a stream of nitrogen with phosphatidyl serine corresponding to a final concentration of 20 mg/ml. The identities of the PI3-P, PI3,4-P2 and PI3,4,5-P3 were confirmed by TLC and HPLC analysis.
To generate the GST fusion proteins, PCR reactions using the primers: […] (SEQ ID NO:9) and […] (SEQ ID NO:10) for the GST-N construct, […] (SEQ ID NO:11) and […] (SEQ ID NO:12) for the GST-Sec7 construct, […] (SEQ ID NO:13) and […] (SEQ ID NO:14) for the GSTPH construct, and […] (SEQ ID NO:15) and […] (SEQ ID NO:16) for the GSTGRP constructs. The sequences of the PCR products were verified, and cloned into pGEX-5X-3 in the EcoRI and Xba 1 sites. The bacteria were lysed and the fusion proteins were bound to gluthathione agarose according to standard procedures. Elution was effected by incubation of the beads with one volume 20 mM Hepes, 100 mM NaCl, 1 mM dithiotreitol (H buffer) supplemented with 10 mM gluthatione and 1% sodium cholate, and the eluate was dialyzed extensively against H buffer. For binding assays, protein was bound to nitrocellulose using a BIO-RAD BIO-DOT™ apparatus, using 150 pmol per well for binding assays and 7.5 pmol for competition assays. The nitrocellulose was washed in assay buffer, and 3 mm circles of the filters containing the protein were cut out and incubated in […] assay buffer with the relevant lipids and competitors for 2 h under constant agitation. The filters were washed four times with 1 mL assay buffer and counted in a scintillation counter.
In order to determine whether PI(3,4,5)P3 binding could be localized to specific sequences within the GRP structure, GST fusion proteins containing either residues 239 to 399 (PH domain), residues 52 to 260 (Sec7 domain), or residues 5 to 71, full length GRP residues 5-399 were expressed in bacteria and purified on glutathione-conjugated beads. […] 150 pmol of the proteins were spotted on nitrocellulose filters, incubated with [^32 P]PI(3,4,5)P3 and the amount of bound lipid was determined as described. The values are the means of the quadruplicate determinations, and the error bars are the standard deviations. […] Nitrocellulose filters with GST-PH were incubated with 25,000 cpm of each of the phospholipids and the amount of bound lipid determined as described above. The values are the means of quadruplicate determinations and the error bars are the standard deviations. […] Although previous work has shown that PH domain from PLCδ (Lemmon et al. (1995) supra) and various other proteins bind 4,5-polyphosphoinositide, none have been reported to preferentially associate with a 3-polyphosphoinositide. […]

ARF5 [2] = assay: ARF5 guanine nucleotide exchange ([35S]GTPγS binding); assay type: biochemical
[3] = tested on: integrin β2 cytoplasmic domain; details: through Sec7 homology region; cited from earlier work
ARF5 [4] = details: cited from earlier work
[5] = 40 minutes, phosphatidylcholine and cholate

PtdIns(4,5)P2
stimulation of ARF1 exchange activity in the presence of GRP (GRP; 0.05% cholate and 0.05% CHAPS (low negative charge)): little or no effect | stimulation of ARF1 exchange activity in the presence of GRP (GRP; 0.1% cholate (high negative charge)): stimulated | interaction with isolated PH domain of PLCγ1 (PH domain of PLCγ1): high affinity | recruitment of ARNO and stimulation of guanine nucleotide exchange on ARF1 (ARNO): causing stimulation of guanine nucleotide exchange on ARF1; also recorded: sufficient for its recruitment to membranes as well as activation of ARF exchange | affinity, fold lower than PtdIns(3,4,5)P3 (PH domain of GRP): 50 fold

B1: GRP: general receptor for phosphoinositides, mouse protein with SEC7 and PH domains (protein)
chain: T1 sequence (O08967 1-399)
concentration that maximally activates labeled nucleotide binding to ARF1 (ARF1; [5]): 2.5 µM | ARF1 guanine nucleotide exchange (ARF1; [^35 S]GTPγS binding to immunoprecipitated ARF1): catalyze nucleotide exchange; also recorded: selectively catalyzes | ARF6 guanine nucleotide exchange (ARF6): no effect and not | binding of [^32 P]PI(3,4,5)P3 by GST fusion protein [1]: extensive binding | concentration that maximally activates labeled nucleotide binding to ARF5 (ARF5 [2]; [5]): 2.5 µM | ARF5 guanine nucleotide exchange (ARF5 [2]; [^35 S]GTPγS binding): significantly enhanced; also recorded: catalyze nucleotide exchange; also recorded: selectively catalyzes

B2: cytohesin-1: B2-1 encoded protein (denoted cytohesin 1) (protein)
chain: MEEDDSYVPSDLTAEERQELENIRRRKQELLADIQRLKDEIAEVANEIENLGSTEERKNMQRNKQVAMGRKKFNMDPKKGIQFLIENDLLKNTCEDIAQFLYKGEGLNKTAIGDYLGERDEFNIQVLHAFVELHEFTDLNLVQALRQFLWSFRLPGEAQKIDRMMEAFAQRYCQCNNGVFQSTDTCYVLSFAIIMLNTSLHNPNVKDKPTVERFIAMNRGINDGGDLPEELLRNLYESIKNEPFKIPEDDGNDLTHTFFNPDREGWLLKLGGGRVKTWKRRWFILTDNCLYYFEYTTDKEPRGIIPLENLSIREVEDSKKPNCFELYIPDNKDQVIKACKTEADGRWEGNHTVYRISAPTPEEKEEWIKCIKAAISRDPFYEMLAARKKKVSSTKRH
binding of the integrin β2 cytoplasmic domain [3]: high affinity | ARF5 as substrate for cytohesin-1 (ARF5 [4]): not to be a substrate
